From the nanobody polyreactivity screen of Harvey et al. (2022)

Test: yeast display, Sf9 membrane polyspecificity reagent, FACS + sequencing; frameworks hold sequencing errors
How it was run: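 Nanobodies came from a synthetic yeast display library in Saccharomyces cerevisiae BJ5465, induced with galactose for 36–48 hours and stained for 1 hour at 4 °C with 10% biotinylated, detergent-solubilized Sf9 membrane reagent. Cells were enriched on streptavidin microbeads and then FACS-sorted, with low and high (top ~1%) gates set on anti-HA fluorescence for expression and streptavidin fluorescence for reagent binding. Each polyreactivity label reflects the gate a clone came from. Genes were amplified by colony PCR, sequenced by MiSeq 2 × 250 and filtered by CDR length.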

Row | Sequence | polyreactivity (PSR sort gate)
1 | QVQLVESGGGLVQAGGSLRLSCAASGIFRYYAMGWYRQAPGKERELVASITGGGSTYYADSVKGRFTISRDNAKMTVYLQLNSLKPEDTAVYYCNTAGAYYRWTPYYYWGQGTQVTVSS | high polyreactivity
2 | QVQLVESGGGLVQAGGSLRLSCAASGSTFGRNTMGWYRQAPGKERELVAAITSCDTTTYADSVKGRFTISLDNAKNTVYIQMNSLKPEDTAVYYCAVDPVRGLDYSWMDYWGQGTQVTVSS | low polyreactivity
3 | QVQLVESGGGLVQAGGSLRLICAASGRTFYSYAMGWYRQAPGKERELVAAISSGGTTYYADSVKGRFTISRDNAKNTDYLQMNSLKPEDTAVYYCATSRAWRYRSYYWGQGTQVTVSS | high polyreactivity
4 | QVQRVESGGGLVQAGGSLRLSCAASGFTFRAYTMGWYRQAPGKDRELVAAITYSGGRRYYADSVKGRFTISRDNAKTTVYLQMNSLNPEDTAVYYCAKRGWALSEYYYWGQGTQVTVSS | high polyreactivity
5 | QVQLVESGGGLVQAGGSLRLSCAASGNTFYWNAMGWYRQAAGKERELVAAISTTGVSTYYADSVKGRFTISRDNAKNTVYLQMNSLKPEDTAVYYCATVSYYDRYDYDYWGQGTQVTVSS | low polyreactivity
6 | QVQLVESGGGLVQAGGSLRLSCAASGSIFFDGNAMGWYRQAPGKERELVAAISVSGGSTYYADSVKGRFTISRDNAKNTVYLQMNSVKPEDTAVYYCAKYPSKSYVPGDYWGQGTQVTVSS | low polyreactivity
7 | QVQLVESGGGLVQAGGSLRLSCAASGRIFGRNAMGWYRQAPGKERELVAAISSGGSTYYADSVKGRFTISRDNAKNTVYLQMNSLKPEDTAVYFCAVRGSYYNGGRAFESWGQGTQVTVSS | high polyreactivity
8 | QVQLVESGGGLVQAGGSLRLSCAASGSTFKSYAMGWYRQAPGKERELVAAISRSGGRTYYADSVKGRFTISRDNAKNTVYLQMNSLKPEDTAVYYCATGVKREGDYWGQGTQVTVSS | high polyreactivity
9 | QVQLVESGGGLVQAGGSLRLSCAASGYTFNGYAMGWYRQAPGKERELVAAISWSGGSTYYADSVKGRFTISRDNAKNTFYLQMNSLKPEDTAVYYCARRGPSGVYNDGGYGLDDDYWGQGTQVTVSS | low polyreactivity
10 | QVQLQGSGAGLVQAGGSLRLSCAPSGYILQNVPMGWNRQAPGKERELVAGIDNGTSTNYADSVNGSFTISRDNAKNTVYLQMNSLKPEDTAVYYCAAAGQADETLGYWGQGTQVTVSR | low polyreactivity
11 | QVQLGESGGGLVQAGGRLRLSCAASGFTFNTYAMGWYRQAPGKVRALVATITSDGSTTYADSVKGRFTISRDNAKNTVNLQMNSLKPEDTAVYYFNARVWVHRYYYYFTHIITYDYWGQGTQVTVSS | low polyreactivity
12 | QVQLVESGGGLVQAGGSLRLSCAASGRTFLINAMGWYRQAPGKERELVAAITQSGGSTYYADSVKGRFTISRDNAKNTVYLQMNSLKPEDTAVYYCAADVPGVYPYDYWGQGTQVTVSS | low polyreactivity
13 | QVQLVESGGGLVQAGGSLRLICAASGSIIGANAMGWSRQAPGKERELGAAITDNTSTTFYADSVKGRFTISRDIAKNTVYLQMNSLKPEDTAVYYCNADRAVVLSTPLWGEYDYWGQGTQVTVSS | low polyreactivity
14 | QVQLVESGGGLVQAGGSLRLSCAASGSTFDGYAMGWYRQAPGKERELVAAITVSVGSTYYADSVKGRFTISRDNAKNTVYLQMNSLIPEDTAVYYCAADYDYHYRYYYWGQGTQVTVSS | low polyreactivity
15 | QVQLVESGGGIVQAGGSLRLSCAASGRIFLSYAMGWYRQAPGKERELVAAISRNGGSTYYADSVKGRFTISRDNGKNTVYLPMNSLKPEDTAVYYCAAGGDYWGQGTQVTVSS | high polyreactivity
16 | QVQLVESGGGLVQAGGSLRLSCAASGFTFSNYAMGWYRQAPGKERELVAAISWSGGSTYYADSVKGRFTISRDNAKNTVYLQMNSLKPEDTAVYYCNVLARPPYYKTRVNSPRSDYWGQGTQVTVSS | high polyreactivity

Row | Sequence | polyreactivity (PSR sort gate)
17 | QVQLVESGGGLVQAGGSLRLSCAASGFTFSIYAMGWSRQAPGKERELVAAIRSSTASTYYADSVKGRFTISRDNAKNTVYLQMNSMKPEDTAVYYCAADTYRTRHIGVKFAFNSWGQGTQVTVSS | high polyreactivity
18 | QVQLVESGGGLVQAGGSLRLSCADSGRTLVRYTMRGYRQAPGKERDLVASISQRGGTTYYADSVKGRFTISRDNAKNTVYLQMNSLKPEDTAVYYCAAGIHGRYARDWYEYWGQGTQVTVSS | low polyreactivity
19 | QVQLVESGGGLVQAGGSLRLSCAASGRTFPIYAMGWYRQSPGKERELVAAITYSGGSTYYADSVKGRFTISRDNANNKVYLKMNSLKPEDTSVYYCAVDGTKPYWHQRYDYWGQGTQVTVSS | low polyreactivity
20 | QVQLVESGGGLVQARGSLRLSCAASGRSFVINAMGWYRPAPGKERELVAGITSSGNTNYADSVKGRFTISRDNAKNTVYLQMNSLKPEDTAVYDCNAQVYLTWLTYWLYYPPNDYWGQGTQVTVSS | low polyreactivity
21 | QVQLVESGGGLVQAGGSLRLSCAASGLTFGTNAMGWYRQAPGKERELVAAISTSSGSTYYADSVKGRFTISRDNAKNTVYLQMNSLKPEDTAVYYCAAVTVTKMSYYRYYYWGQGTQVTVSS | low polyreactivity
22 | QDQLVESGGGLVQAGGSLRLSCAASGSTFSWYAMGWYRQAPGKERELVAAINNRSGSTSYADSVKGRFTISRDNAKNTVYLQMNSLKPEDTAVYYCAAEGTDGLYDWEYDYWGQGTQVTVSS | high polyreactivity
23 | QVQLVESGGGLVQAGGSLRLSCAASGRTFYVNAMGWYRQAPGKETELVAAISSGSSTDYADSVKGRFTISRDNAKNTVYLQMNSLKPEDTAVYYCAKRWRRRFVDVWSLYDYWGQGTQVTVSS | low polyreactivity
24 | QVQLVESGGGLVQAGGSLRIICAASGSIFPYYAKGWYRQAPGKERELVARITITGGITYYADSVKGRFSISRDNAKNTVYLQMHSLKPEDTAVYYCAADRDWQYSFRHSVYVYDYDFWGQGTQVTVSS | low polyreactivity
25 | QVQLVESGGGLVQAGGSLRLSCAASGYTFRYNAMGWYKQAPWKDRELVATITRGGSTNYADSVKGRFTISRDNAKNTVYLQMNSLKPEDTEVYYCNKEAAPLGFVPSYYGRDYWGQGTQVTVSS | low polyreactivity
26 | QDQLVESGGGLVQAGGSLRLSCAASGSTFPAYAMGWYRQAPGKERELVAAISVRRGRTYYADSVKGRFTSSRDNAKNTVYLQMNSLKPDDTAVYYCAAYLRPGGNYYWGQGTQVTVSS | high polyreactivity
27 | QVQLVESGGGLDQARGSLRLSCAASGRTFSSNAMGWYRQAPWKERELVAAISSSGAGTYYADSVKGRFTISRDNAKNTVYLQMNSLKPEDTAVYYCAARANSYHSFTSHYDYWGQGTQVTVSS | low polyreactivity
28 | QVQLVESGGGLVQAGGSHRLSCAASGSIFYFNAMGWYRQAPGKEREFVAGITTSGGSTYYADSVKGRFTISRDNAKNTVYLQMNSLKPEDTAVYYCNIVWVYAVTPSSWYKYGSWGQGTQVTVSS | low polyreactivity
29 | QDQLVESGGGLVQAGGSLRLSCAASGSTFRRYDMGWYRQAPGKERELVAAISHRTGRTSYADSVKGRFTISRDNAKNTVYLQMNSLKTEDTAVYYCAADHTYYRQGYDYWGQGTQVTVSS | high polyreactivity
30 | QVQLVESGGGLVQAGGSLRLSCAASGFIFYYNTMGWYRQAPGKERELVASITWSGDTTYYADSVKGRFTISRDNAKNTVYLQMNSLKPEDTAVYYCAAVHYYTYRRYDYWGQGTQVTVSS | low polyreactivity
31 | QVQLVESGGGLVQAGGSLRLSCAASGSIFRNYAMGWYRQAPGKERELVAAISRRGGSTYYADSVKGRFTISRDNAKNTVYLQMNSLKPEDTAVYYCKKRWSSKTVQYDYWGQGTQVTVSS | high polyreactivity
